# From IntAct's records for PubMed 21139564
# B1: Eukaryotic initiation factor 4F subunit p150 (Saccharomyces cerevisiae), P39935 (parent)
# chain: MTDETAHPTQSASKQESAALKQTGDDQQESQQQRGYTNYNNGSNYTQKKPYNSNRPHQQRGGKFGPNRYNNRGNYNGGGSFRGGHMGANSSNVPWTGYYNNYPVYYQPQQMAAAGSAPANPIPVEEKSPVPTKIEITTKSGEHLDLKEQHKAKLQSQERSTVSPQPESKLKETSDSTSTSTPTPTPSTNDSKASSEENISEAEKTRRNFIEQVKLRKAALEKKRKEQLEGSSGNNNIPMKTTPENVEEKGSDKPEVTEKTKPAEEKSAEPEVKQETPAEEGEQGEKGQIKEESTPKVLTFAERLKLKKQQKEREEKTEGKENKEVPVQEETKSAIESAPVPPSEQVKEETEVAETEQSNIDESATTPAIPTKSDEAEAEVEAEAGDAGTKIGLEAEIETTTDETDDGTNTVSHILNVLKDATPIEDVFSFNYPEGIEGPDIKYKKEHVKYTYGPTFLLQFKDKLNVKADAEWVQSTASKIVIPPGMGRGNRSRDSGRFGNNSSRGHDFRNTSVRNMDDRANSRTSSKRRSKRMNDDRRSNRSYTSRRDRERGSYRNEEKREDDKPKEEVAPLVPSANRWVPKFKSKKTEKKLAPDGKTELLDKDEVERKMKSLLNKLTLEMFDAISSEILAIANISVWETNGETLKAVIEQIFLKACDEPHWSSMYAQLCGKVVKELNPDITDETNEGKTGPKLVLHYLVARCHAEFDKGWTDKLPTNEDGTPLEPEMMSEEYYAAASAKRRGLGLVRFIGFLYRLNLLTGKMMFECFRRLMKDLTDSPSEETLESVVELLNTVGEQFETDSFRTGQATLEGSQLLDSLFGILDNIIQTAKISSRIKFKLIDIKELRHDKNWNSDKKDNGPKTIQQIHEEEERQRQLKNNSRSNSRRTNNSSNRHSFRRDAPPASKDSFITTRTYSQRNSQRAPPPKEEPAAPTSTATNMFSALMGESDDEE
# partner: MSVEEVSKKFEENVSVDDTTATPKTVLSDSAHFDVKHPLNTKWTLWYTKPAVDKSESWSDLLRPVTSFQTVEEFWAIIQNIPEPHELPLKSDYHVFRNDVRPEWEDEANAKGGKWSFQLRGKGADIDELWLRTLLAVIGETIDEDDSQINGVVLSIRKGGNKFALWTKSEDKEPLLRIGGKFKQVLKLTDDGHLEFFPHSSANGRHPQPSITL
# Variants of: B1
# Conditions: with if4e_yeast CDC33, P07260
row,Variant,effect of a mutation on the interaction
1,L457A;L458A,decreasing interaction
2,V213A;K214A;L215A;R216A;L457A;L458A,decreasing interaction strength
